# Measured values reported in US20240254222A1 (Bayer, published 2024).
# Changes are numbered by the printed parent chain.
# T1: Human Semaphorin3A-Sema Domain, TPP-19068 (human, UniProt Q14563 21-569)
# T1 construct: produced inhouse in HEK293-6E; also called human monovalent Sema3A domain
# T1 sequence: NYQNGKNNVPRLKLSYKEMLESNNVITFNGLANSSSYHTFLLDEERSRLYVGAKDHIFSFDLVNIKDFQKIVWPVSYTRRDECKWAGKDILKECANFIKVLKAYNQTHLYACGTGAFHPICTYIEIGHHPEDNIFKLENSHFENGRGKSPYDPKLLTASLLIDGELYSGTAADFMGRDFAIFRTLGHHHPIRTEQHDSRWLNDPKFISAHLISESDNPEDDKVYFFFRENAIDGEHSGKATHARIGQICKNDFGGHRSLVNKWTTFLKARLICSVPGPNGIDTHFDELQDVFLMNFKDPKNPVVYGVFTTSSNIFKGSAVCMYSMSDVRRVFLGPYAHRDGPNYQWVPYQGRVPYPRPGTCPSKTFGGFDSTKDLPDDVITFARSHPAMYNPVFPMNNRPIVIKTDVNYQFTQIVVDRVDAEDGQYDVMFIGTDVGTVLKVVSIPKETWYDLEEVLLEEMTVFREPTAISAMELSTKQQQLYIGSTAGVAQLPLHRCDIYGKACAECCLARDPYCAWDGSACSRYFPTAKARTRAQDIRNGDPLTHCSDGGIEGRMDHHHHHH
# B1: TPP-15051 (antibody, mouse IgG1)
# heavy: EVQLLESGGGLVQPGGSLRLSCAASGFTFSSYPMGWVRQAPGKGLEWVAGIDDDGDSDTRYAPAVKGRATISRDNSKNTVYLQMNSLRAEDTAVYYCAKHTGIGANSAGSIDAWGQGTLVTVSSAKTTPPSVYPLAPGSAAQTNSMVTLGCLVKGYFPEPVTVTWNSGSLSSGVHTFPAVLQSDLYTLSSSVTVPSSTWPSETVTCNVAHPASSTKVDKKIVPRDCGCKPCICTVPEVSSVFIFPPKPKDVLTITLTPKVTCVVVDISKDDPEVQFSWFVDDVEVHTAQTQPREEQFNSTFRSVSELPIMHQDWLNGKEFKCRVNSAAFPAPIEKTISKTKGRPKAPQVYTIPPPKEQMAKDKVSLTCMITDFFPEDITVEWQWNGQPAENYKNTQPIMDTDGSYFVYSKLNVQKSNWEAGNTFTCSVLHEGLHNHHTEKSLSHSPGK
# light: SYELTQPPSVSVSPGQTARITCSGGGSYTGSYYYGWYQQKPGQAPVTVIYYNNKRPSDIPERFSGSLSGTTNTLTISGVQAEDEADYYCGSADNSGDAFGTGTKVTVLGQPKSSPSVTLFPPSSEELETNKATLVCTITDFYPGVVTVDWKVDGTPVTQGMETTQPSKQSNNKYMASSYLTLTARAWERHSSYSCQVTHEGHTVEKSLSRADCS
# B2: TPP-25497 (antibody, human IgG1, lambda, V domains shown)
# VH: EVQLLESGGGLVQPGGSLRLSCAASGFDFDSYEMNWVRQAPGKGLEWVSGISWNSGWIDYADSVKGRFTISRDNSKNTLYLQMNSLRAEDTAVYYCARSGYSSSWFDPDFDYWGQGTLVTVSS
# VL: QSVLTQPPSVSGAPGQRVTISCTGSSSDIGAGYDVHWYQQLPGTAPKLLIYGNSNRPSGVPDRFSGSKSGTSASLAITGLQAEDEADYYCSSYEGINPYVVFGGGTKLTVLG
# B3: TPP-26111 (antibody, human IgG1, lambda, V domains shown)
# VH: B2 VH with D28T
# VL: B2 VL with D28N, E94A, I96P
# B4: TPP-25655 (antibody, human IgG1, lambda, V domains shown)
# VH: B2 VH with D30S
# VL: B2 VL with D28N, N53A, I96P
# B5: TPP-31357 (Fab, V domains shown)
# V domain 1: EVQLLESGGGLVQPGGSLRLSCAASGFTFRSYAVHWVRQAPGKGLEWVSSTEGSGVGTSYTDSVKGRFTISRDNSKNTLYLQMNSLRAEDTAVYYCARMLGGGNPLDYLDYWGQGTLVTVSS
# V domain 2: QSVLTQPPSASGTPGQRVTISCSGSSSNLGEGYDVHWYQQLPGKAPKLLIYYSDFRPSGVSDRFSGSKSGTSASLAISGLQSEDEADYYCAAWDDSLSSQVFGGGTQVTVLG
# notes: Fab heavy chain entry carries myc and His tags; also called Fab of 3H4 Univ Ramot
# How the values were obtained:
# [1] = target: Human Semaphorin3A-Fc (R&D Systems), TPP-13211 (human); assay: cell-based or functional assay
# [2] = target: Human Semaphorin3A-Fc (R&D Systems), TPP-13211 (human); assay: cell-based or functional assay; remark: listed apart in the source
# [3] = target: T1, Human Semaphorin3A-Sema Domain, …; assay: SPR, captured antibody, Sema3A domain analyte
# Method: (§1) To assess the binding kinetics and affinity of anti-Sema3A antibodies as well as their species cross-reactivity profile, binding assays were conducted using surface plasmon resonance (SPR). Binding assays were performed on a Biacore T200 instrument or on a Biacore 8K+ instrument (Cytiva) at 25° C. using assay buffer HBS P+, 300 mM NaCl, 0.75 mM CaCl₂, 2.5 mM MgCl₂, 1 mg/ml BSA, 0.05% NaN₃. Antibodies were captured either via anti-human Fc IgGs (“Human antibody capture kit”, Order No. BR100839, Cytiva) or in case of Fc-tagged analytes by anti-human Fab IgGs (“Human Fab capture kit”, Order No. 28958325, Cytiva) covalently amine coupled to a Series S CM5 sensor chip (Cytiva). The amine coupling was carried out according to the manufacturer's instructions using 1-ethyl-3-(3-dimethylaminopropyl) carbodiimide hydrochloride (EDC), N-hydroxysuccinimide (NHS) and ethanolamine HCl, pH 8.5 (“Amine Coupling Kit” BR-1000-50, Cytiva.). For phage display hits Fc-tagged human and mouse Sema3A was used as analytes in a concentration range from 1.56-200 nM. Human, mouse, cynomolgus, rat, dog and pig monovalent Sema3A domain were used as analytes in a concentration series from […] in multi cycle kinetics mode or in 100 nM for binding analysis only. The sensor surface was regenerated with glycine pH 2.0 after each antigen injection. Obtained sensorgrams were double referenced (subtraction of reference flow cell signal and buffer injection) and were fitted to a 1:1 Langmuir binding model to derive kinetic data using the Biacore T200 Evaluation software.
# [4] = target: T2, Human Semaphorin3A-Fc (R&D Systems), TPP-13211 (human); assay: competition ELISA on coated TPP-13211, competitor biotinylated TPP-15374
# T2 construct: R&D Systems 1250-S3; also called recombinant human Sema3A-Fc chimera
# Method: For screening in a competition ELISA setup, human Sema3a (TPP-13211) was coated onto 384-well plates (Greiner bio-one, 781077) with a concentration of 0.5 μg/ml in coating buffer (Carbonate-Basis pH 9.6, Candor 121125) over night at 10° C. After washing the plates 3 times with 50 μl PBS 0.05% Tween the plates were blocked with 50 μl Smart Block® (Candor 113500) for 1 h at 20° C. and washed again 3 times as described.
# Subsequently, 20 μl of pre-mixed antibody solution was added to the plates and incubate for 18 h at 10° C. […] The total concentration of the added antibody solution was 0.25 μg/ml. During the incubation time the antibodies bound to the plates in a competitive manner as they compete for the same epitope on the human Sema3A protein.
# After subsequent washing with 50 μl PBS 0.05% Tween for 3 times, 20 μl of a Streptavidin-HRP solution (R&D Systems, DY998, 1:200 in PBS 0.05% Tween 10% Smart Block) were added and incubated for 1 h and 20° C. followed by subsequent washing 3 times with 50 μl PBS 0.05% Tween and addition of 20 μl Amplex Red solution (Invitrogen A12222, 1:1000 in NaP-buffer 50 mM pH7.6 with 1:10000 of 30% H2O2). After a final incubation for 20 min at 20° C. the signal was determined using an emission wavelength of 595 nm and excitation of 530 nm.
# [5] = target: T1, Human Semaphorin3A-Sema Domain, …; assay: SPR, 100 nM TPP-19068, binding experiment
# Method: as §1
# T2 sequence (chain, as listed by the source limits assumed): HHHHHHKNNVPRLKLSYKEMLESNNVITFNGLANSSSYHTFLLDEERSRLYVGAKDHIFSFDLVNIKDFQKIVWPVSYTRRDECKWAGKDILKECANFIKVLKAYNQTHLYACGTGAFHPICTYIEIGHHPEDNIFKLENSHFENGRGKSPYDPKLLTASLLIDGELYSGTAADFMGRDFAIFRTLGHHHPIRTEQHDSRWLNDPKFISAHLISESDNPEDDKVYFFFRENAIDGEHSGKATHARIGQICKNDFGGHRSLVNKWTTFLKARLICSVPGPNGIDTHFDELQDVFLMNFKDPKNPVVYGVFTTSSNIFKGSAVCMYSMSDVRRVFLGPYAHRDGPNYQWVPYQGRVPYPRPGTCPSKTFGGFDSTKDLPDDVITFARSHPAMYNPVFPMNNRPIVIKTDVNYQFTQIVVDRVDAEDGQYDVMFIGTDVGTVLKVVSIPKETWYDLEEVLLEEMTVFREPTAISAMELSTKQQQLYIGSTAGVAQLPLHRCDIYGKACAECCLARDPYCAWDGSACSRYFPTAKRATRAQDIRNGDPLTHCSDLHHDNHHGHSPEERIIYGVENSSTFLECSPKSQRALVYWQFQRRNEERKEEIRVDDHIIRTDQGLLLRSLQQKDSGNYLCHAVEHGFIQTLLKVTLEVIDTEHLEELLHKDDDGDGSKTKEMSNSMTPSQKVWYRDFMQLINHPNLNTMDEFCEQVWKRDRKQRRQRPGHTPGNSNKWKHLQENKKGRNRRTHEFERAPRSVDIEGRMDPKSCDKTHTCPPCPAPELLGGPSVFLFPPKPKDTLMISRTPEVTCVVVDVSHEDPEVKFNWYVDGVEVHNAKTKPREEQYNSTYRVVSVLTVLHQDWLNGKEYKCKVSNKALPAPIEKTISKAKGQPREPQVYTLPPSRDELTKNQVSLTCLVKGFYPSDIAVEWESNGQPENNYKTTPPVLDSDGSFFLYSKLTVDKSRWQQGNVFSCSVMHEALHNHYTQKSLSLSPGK
"EC50 [nM], MCM assay [1] [nM]","EC50 (nM), GCC assay [2] [nM]",Kd [3] [nM],VAL norm to TPP-9809 (1 to 1 ratio) [4],VAL norm to TPP-9809 (1 to 5 ratio) [4],Kd [5] [nM],Binder
42.9,243,,,,,B1
,,0.052,0.39,0.26,,B2
,,0.052,0.49,0.18,,B3
,,0.049,0.39,0.23,,B4
,,,,,0.35,B5
